Measurements from patent US20170101454A1 (Novo Nordisk, published 2017).
Starred links: 1 amine or outer side, 2 acyl side, 3 side chain; linkers in the order of their positions; H or OH if unused. Non-standard residues stand in square brackets, D forms with d. Groups on a side chain read outwards from the residue. No end group written: not given here. *: point of attachment. C18 diacid = O=C(O)CCCCCCCCCCCCCCCCC(=O)*; γGlu = O=C(O)[C@H](CCC(=O)[*:2])N[*:1]; Ac4c = NC1(C(=O)O)CCC1; AEEA = NCCOCCOCC(=O)O; Aib = CC(C)(N)C(=O)O

Columns and labels:
human GLP-1 receptor [1] = target: T1, human GLP-1 receptor (human, UniProt P43220 24-463); test: cell-based or functional assay
human glucagon receptor [2] = target: T2, human glucagon receptor (human, UniProt P47871 26-477); test: cell-based or functional assay
human GLP-1 receptor [3] = target: T1, human GLP-1 receptor; test: displacement of [125I]-GLP-1-(7-36)NH2 from BHK membranes with human GLP-1R, SPA, no serum albumin
human glucagon receptor [4] = target: T2, human glucagon receptor; test: displacement of [125I]-glucagon from BHK membranes with human glucagon receptor, SPA, no serum albumin

T2 sequence (P47871 26-477): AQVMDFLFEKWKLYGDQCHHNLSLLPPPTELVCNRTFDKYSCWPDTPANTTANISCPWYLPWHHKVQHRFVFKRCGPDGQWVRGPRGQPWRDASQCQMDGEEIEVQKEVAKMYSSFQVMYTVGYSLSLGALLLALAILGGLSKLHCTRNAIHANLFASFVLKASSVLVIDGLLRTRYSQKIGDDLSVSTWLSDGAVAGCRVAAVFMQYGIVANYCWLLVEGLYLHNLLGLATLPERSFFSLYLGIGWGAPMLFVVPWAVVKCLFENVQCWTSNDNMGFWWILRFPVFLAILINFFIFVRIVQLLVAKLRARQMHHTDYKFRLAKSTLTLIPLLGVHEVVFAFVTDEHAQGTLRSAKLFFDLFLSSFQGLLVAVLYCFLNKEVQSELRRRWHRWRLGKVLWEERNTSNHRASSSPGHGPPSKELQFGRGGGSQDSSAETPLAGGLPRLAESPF

GLP-1R EC50 (pM) [Assay (I)(a)], CRE luciferase reporter, BHK cells (human GLP-1 receptor [1]) | GlucagonR EC50 (pM), [Assay (I)(b)], CRE luciferase reporter, BHK cells (human glucagon receptor [2]) | IC50 (human GLP-1 receptor [3]) | IC50 (human glucagon receptor [4]) | Binder
3 pM | 748 pM | 0.1 nM | 42.4 nM | H[Aib]QGTFTSDVSKYLESRRAQDFVQWLIK([AEEA-AEEA-γGlu-γGlu-γGlu-C18 diacid])T-NH2 (N-terminus assumed; SMILES CC[C@H](C)[C@H](NC(=O)[C@H](CC(C)C)NC(=O)[C@H](Cc1c[nH]c2ccccc12)NC(=O)[C@H](CCC(N)=O)NC(=O)[C@@H](NC(=O)[C@H](Cc1ccccc1)NC(=O)[C@H](CC(=O)O)NC(=O)[C@H](CCC(N)=O)NC(=O)[C@H](C)NC(=O)[C@H](CCCNC(=N)N)NC(=O)[C@H](CCCNC(=N)N)NC(=O)[C@H](CO)NC(=O)[C@H](CCC(=O)O)NC(=O)[C@H](CC(C)C)NC(=O)[C@H](Cc1ccc(O)cc1)NC(=O)[C@H](CCCCN)NC(=O)[C@H](CO)NC(=O)[C@@H](NC(=O)[C@H](CC(=O)O)NC(=O)[C@H](CO)NC(=O)[C@@H](NC(=O)[C@H](Cc1ccccc1)NC(=O)[C@@H](NC(=O)CNC(=O)[C@H](CCC(N)=O)NC(=O)C(C)(C)NC(=O)[C@@H](N)Cc1c[nH]cn1)[C@@H](C)O)[C@@H](C)O)C(C)C)C(C)C)C(=O)N[C@@H](CCCCNC(=O)COCCOCCNC(=O)COCCOCCNC(=O)CC[C@H](NC(=O)CC[C@H](NC(=O)CC[C@H](NC(=O)CCCCCCCCCCCCCCCCC(=O)O)C(=O)O)C(=O)O)C(=O)O)C(=O)N[C@H](C(N)=O)[C@@H](C)O, also called Chem. 10; Chem 10)
4 pM | 22 pM | 1.5 nM | 6.5 nM | HXQGTFTSDYSRYLESRRARDFVQWLIKT (Acb at position 2; epsilon-N of Lys28 acylated with the substituent given in the name (17-carboxyheptadecanoyl-2xgGlu-Ado-gGlu-Ado-gGlu-Ado-gGlu-); C-terminal amide, also called Chem. 36; Chem 36)
2 pM | 12 pM | 0.3 nM | 2.7 nM | H[Ac4c]QGTFTSDLSKYLESRRAQEFVQWLIK([γGlu-AEEA-AEEA-γGlu-γGlu-C18 diacid])T-NH2 (N-terminus assumed; SMILES CC[C@H](C)[C@H](NC(=O)[C@H](CC(C)C)NC(=O)[C@H](Cc1c[nH]c2ccccc12)NC(=O)[C@H](CCC(N)=O)NC(=O)[C@@H](NC(=O)[C@H](Cc1ccccc1)NC(=O)[C@H](CCC(=O)O)NC(=O)[C@H](CCC(N)=O)NC(=O)[C@H](C)NC(=O)[C@H](CCCNC(=N)N)NC(=O)[C@H](CCCNC(=N)N)NC(=O)[C@H](CO)NC(=O)[C@H](CCC(=O)O)NC(=O)[C@H](CC(C)C)NC(=O)[C@H](Cc1ccc(O)cc1)NC(=O)[C@H](CCCCN)NC(=O)[C@H](CO)NC(=O)[C@H](CC(C)C)NC(=O)[C@H](CC(=O)O)NC(=O)[C@H](CO)NC(=O)[C@@H](NC(=O)[C@H](Cc1ccccc1)NC(=O)[C@@H](NC(=O)CNC(=O)[C@H](CCC(N)=O)NC(=O)C1(NC(=O)[C@@H](N)Cc2c[nH]cn2)CCC1)[C@@H](C)O)[C@@H](C)O)C(C)C)C(=O)N[C@@H](CCCCNC(=O)CC[C@H](NC(=O)COCCOCCNC(=O)COCCOCCNC(=O)CC[C@H](NC(=O)CC[C@H](NC(=O)CCCCCCCCCCCCCCCCC(=O)O)C(=O)O)C(=O)O)C(=O)O)C(=O)N[C@H](C(N)=O)[C@@H](C)O, also called Chem. 38; Chem 38)
1 pM | 24 pM | 0.1 nM | 4.6 nM | H[Aib]QGTFTSDVSKYLDARRAQDFVQWLIK([γGlu-AEEA-AEEA-γGlu-γGlu-C18 diacid])T-NH2 (N-terminus assumed; SMILES CC[C@H](C)[C@H](NC(=O)[C@H](CC(C)C)NC(=O)[C@H](Cc1c[nH]c2ccccc12)NC(=O)[C@H](CCC(N)=O)NC(=O)[C@@H](NC(=O)[C@H](Cc1ccccc1)NC(=O)[C@H](CC(=O)O)NC(=O)[C@H](CCC(N)=O)NC(=O)[C@H](C)NC(=O)[C@H](CCCNC(=N)N)NC(=O)[C@H](CCCNC(=N)N)NC(=O)[C@H](C)NC(=O)[C@H](CC(=O)O)NC(=O)[C@H](CC(C)C)NC(=O)[C@H](Cc1ccc(O)cc1)NC(=O)[C@H](CCCCN)NC(=O)[C@H](CO)NC(=O)[C@@H](NC(=O)[C@H](CC(=O)O)NC(=O)[C@H](CO)NC(=O)[C@@H](NC(=O)[C@H](Cc1ccccc1)NC(=O)[C@@H](NC(=O)CNC(=O)[C@H](CCC(N)=O)NC(=O)C(C)(C)NC(=O)[C@@H](N)Cc1c[nH]cn1)[C@@H](C)O)[C@@H](C)O)C(C)C)C(C)C)C(=O)N[C@@H](CCCCNC(=O)CC[C@H](NC(=O)COCCOCCNC(=O)COCCOCCNC(=O)CC[C@H](NC(=O)CC[C@H](NC(=O)CCCCCCCCCCCCCCCCC(=O)O)C(=O)O)C(=O)O)C(=O)O)C(=O)N[C@H](C(N)=O)[C@@H](C)O, also called Chem. 39; Chem 39)
2 pM | 245 pM | 0.1 nM | 31.6 nM | H[Aib]QGTFTSDLSKYLESRRARDFVQWLIK([AEEA-AEEA-γGlu-γGlu-γGlu-C18 diacid])T-NH2 (N-terminus assumed; SMILES CC[C@H](C)[C@H](NC(=O)[C@H](CC(C)C)NC(=O)[C@H](Cc1c[nH]c2ccccc12)NC(=O)[C@H](CCC(N)=O)NC(=O)[C@@H](NC(=O)[C@H](Cc1ccccc1)NC(=O)[C@H](CC(=O)O)NC(=O)[C@H](CCCNC(=N)N)NC(=O)[C@H](C)NC(=O)[C@H](CCCNC(=N)N)NC(=O)[C@H](CCCNC(=N)N)NC(=O)[C@H](CO)NC(=O)[C@H](CCC(=O)O)NC(=O)[C@H](CC(C)C)NC(=O)[C@H](Cc1ccc(O)cc1)NC(=O)[C@H](CCCCN)NC(=O)[C@H](CO)NC(=O)[C@H](CC(C)C)NC(=O)[C@H](CC(=O)O)NC(=O)[C@H](CO)NC(=O)[C@@H](NC(=O)[C@H](Cc1ccccc1)NC(=O)[C@@H](NC(=O)CNC(=O)[C@H](CCC(N)=O)NC(=O)C(C)(C)NC(=O)[C@@H](N)Cc1c[nH]cn1)[C@@H](C)O)[C@@H](C)O)C(C)C)C(=O)N[C@@H](CCCCNC(=O)COCCOCCNC(=O)COCCOCCNC(=O)CC[C@H](NC(=O)CC[C@H](NC(=O)CC[C@H](NC(=O)CCCCCCCCCCCCCCCCC(=O)O)C(=O)O)C(=O)O)C(=O)O)C(=O)N[C@H](C(N)=O)[C@@H](C)O, also called Chem. 3; Chem 3)
4 pM | 98 pM | 1.5 nM | 6.6 nM | HXQGTFTSDYSRYLESRRARDFVQWLIKT (Aib at position 2; epsilon-N of Lys28 acylated with the substituent given in the name (17-carboxyheptadecanoyl-2xgGlu-Ado-gGlu-Ado-gGlu-Ado-gGlu-); C-terminal amide, also called Chem. 37; Chem 37)
3 pM | 30 pM | 1.2 nM | 7.1 nM | H[Aib]QGTFTSDLSKYLDVRRAQDFVQWLIK([γGlu-AEEA-AEEA-γGlu-γGlu-C18 diacid])T-NH2 (N-terminus assumed; SMILES CC[C@H](C)[C@H](NC(=O)[C@H](CC(C)C)NC(=O)[C@H](Cc1c[nH]c2ccccc12)NC(=O)[C@H](CCC(N)=O)NC(=O)[C@@H](NC(=O)[C@H](Cc1ccccc1)NC(=O)[C@H](CC(=O)O)NC(=O)[C@H](CCC(N)=O)NC(=O)[C@H](C)NC(=O)[C@H](CCCNC(=N)N)NC(=O)[C@H](CCCNC(=N)N)NC(=O)[C@@H](NC(=O)[C@H](CC(=O)O)NC(=O)[C@H](CC(C)C)NC(=O)[C@H](Cc1ccc(O)cc1)NC(=O)[C@H](CCCCN)NC(=O)[C@H](CO)NC(=O)[C@H](CC(C)C)NC(=O)[C@H](CC(=O)O)NC(=O)[C@H](CO)NC(=O)[C@@H](NC(=O)[C@H](Cc1ccccc1)NC(=O)[C@@H](NC(=O)CNC(=O)[C@H](CCC(N)=O)NC(=O)C(C)(C)NC(=O)[C@@H](N)Cc1c[nH]cn1)[C@@H](C)O)[C@@H](C)O)C(C)C)C(C)C)C(=O)N[C@@H](CCCCNC(=O)CC[C@H](NC(=O)COCCOCCNC(=O)COCCOCCNC(=O)CC[C@H](NC(=O)CC[C@H](NC(=O)CCCCCCCCCCCCCCCCC(=O)O)C(=O)O)C(=O)O)C(=O)O)C(=O)N[C@H](C(N)=O)[C@@H](C)O, also called Chem. 40; Chem 40)
2 pM | 7 pM | 0.3 nM | 0.9 nM | H[Aib]QGTFTSDYSKYLDARRARDFVAWLIK([γGlu-γGlu-AEEA-AEEA-γGlu-C18 diacid])T-NH2 (N-terminus assumed; SMILES CC[C@H](C)[C@H](NC(=O)[C@H](CC(C)C)NC(=O)[C@H](Cc1c[nH]c2ccccc12)NC(=O)[C@H](C)NC(=O)[C@@H](NC(=O)[C@H](Cc1ccccc1)NC(=O)[C@H](CC(=O)O)NC(=O)[C@H](CCCNC(=N)N)NC(=O)[C@H](C)NC(=O)[C@H](CCCNC(=N)N)NC(=O)[C@H](CCCNC(=N)N)NC(=O)[C@H](C)NC(=O)[C@H](CC(=O)O)NC(=O)[C@H](CC(C)C)NC(=O)[C@H](Cc1ccc(O)cc1)NC(=O)[C@H](CCCCN)NC(=O)[C@H](CO)NC(=O)[C@H](Cc1ccc(O)cc1)NC(=O)[C@H](CC(=O)O)NC(=O)[C@H](CO)NC(=O)[C@@H](NC(=O)[C@H](Cc1ccccc1)NC(=O)[C@@H](NC(=O)CNC(=O)[C@H](CCC(N)=O)NC(=O)C(C)(C)NC(=O)[C@@H](N)Cc1c[nH]cn1)[C@@H](C)O)[C@@H](C)O)C(C)C)C(=O)N[C@@H](CCCCNC(=O)CC[C@H](NC(=O)CC[C@H](NC(=O)COCCOCCNC(=O)COCCOCCNC(=O)CC[C@H](NC(=O)CCCCCCCCCCCCCCCCC(=O)O)C(=O)O)C(=O)O)C(=O)O)C(=O)N[C@H](C(N)=O)[C@@H](C)O, also called Chem. 32; Chem 32)
